Results published in article PMC10200060, “Inhibition of DAMP actions in the tumoral microenvironment using lactoferrin-glycyrrhizin conjugate for glioblastoma therapy” (Biomaterials Research, 2023).

T1: human recombinant HMGB1 protein (Homo sapiens, UniProt P09429)
T1 construct: purchased Abcam
T1 sequence (P09429 1-215): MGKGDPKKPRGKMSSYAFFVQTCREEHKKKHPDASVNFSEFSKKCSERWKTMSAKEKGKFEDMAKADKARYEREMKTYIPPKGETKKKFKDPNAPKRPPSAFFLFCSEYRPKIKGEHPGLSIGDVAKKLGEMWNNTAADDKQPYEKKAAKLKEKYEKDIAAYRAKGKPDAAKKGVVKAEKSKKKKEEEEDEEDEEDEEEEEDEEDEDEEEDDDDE


Assays:
[1] = test system: orthotopic GBM (U87MG) mice model; test: TUNEL assay of GBM tissue; type: in vivo, Balb/c nude mice; conditions: daily i.v., 14 days (control 28.5 ± 4.8)
From the text: (§1) After two weeks, mice were sacrificed, and the brains were harvested and fixed with paraformaldehyde (4%). Then, tissue processing was automatically conducted using a Leica TP1020 semi-enclosed Benchtop Tissue Processor (Leica Biosystems, Wetzlar, Hesse, Germany), followed by embedding in paraffin blocks. Paraffin blocks were sliced into 5 μm thick slices using a Leica RM2145 Microtome (Leica Biosystems). Nissl staining was used to stain brain tissue slides with pre-warmed 0.1% Cresyl Violet Stain Solution (Abcam). TUNEL assays were conducted following the manufacturer’s instructions. For immunofluorescence staining; anti-HMGB1 antibody (Abcam), anti-Ki67 antibody (Abcam), anti-CD31 antibody (Abcam), and anti-VEGF antibody (Abcam) were used as primary antibodies, and goat anti-rabbit IgG-H&L Alexa Fluor 488 and goat anti-rabbit IgG H&L Alexa Fluor 647 were used as secondary antibodies, followed by DAPI mounting.

[2] = target: T1, human recombinant HMGB1 protein; test: SPR binding affinity against HMGB1; conditions: SPR, HMGB1 immobilized
Description: To confirm the binding affinity of Lf-GL to HMGB1, Surface Plasmon Resonance (SPR) was conducted at WoojungBSC (Korea). The Reichert SR7500DC system (Reichert technologies, NA, USA) and Scrubber2 software (Biologic software, FRA) were used, and a CMDH chip (Cat #: 13,206,066, Reichert technologies) was used for immobilization of the human recombinant HMGB1 protein (Abcam). HMGB1 protein was used as a ligand, and the analytes were HMGB1 antibody (Abcam), GL, Lf and Lf-GL conjugate. The immobilization buffer was S.A. (10 × 10^–3 M, pH 4.5), and the running buffer was PBS (pH 7.4). The flow rate of the analyte was 30 μL min^−1. The association and dissociation time were 3 min each, and measurements were conducted at room temperature. Results are expressed in response units (RU) over time.
Fig. S5. Binding affinity against HMGB1. Surface Plasmon Resonance (SPR) was conducted at WoojungBSC (Korea). The Reichert SR7500DC system (Reichert technologies, NA, USA) and Scrubber2 software(Biologic software, FRA) were used and the CMDH chip (Cat #: 13206066, Reichert technologies) was used for immobilization of the human recombinant HMGB1 protein (Abcam). HMGB1 protein was used as ligand and analytes were HMGB1 antibody (Abcam), GL, Lf and Lf-GL conjugate. Immobilization buffer was 10 mM S.A. (pH 4.5) and running buffer was 1× PBS. The flow rate of the analyte was 30 μL min^-1. The association and dissociation time were 3 min each and conducted at room temperature. Results are expressed in response units (RU) over time.

[3] = test system: orthotopic GBM (U87MG) mice model; test: Nissl staining: GBM/normal brain ratio; type: in vivo, Balb/c nude mice; conditions: daily i.v. GL equivalent 50 mg kg^−1, 14 days (control 37.5 ± 2.3)
From the text: as §1

HUVEC = HUVEC co-cultured with U87MG: CCK-8 at basal chamber; type: cell-based, human; conditions: HUVEC/U87MG Transwell co-culture, 100 μM GL equivalent, 24 h
Description: (§2) To evaluate the inhibitory effect of Lf-GL on neovascularization in the tumor microenvironment in vitro, U87MG cells were seeded in the Transwell® insert chambers that were 6.5 mm in diameter and had 0.4 μm pore sizes (seeding density: 2.5 × 10^4 cells per well, Corning). HUVECs were seeded in the Transwell basal chamber (seeding density: 5.0 × 10^4 cells per well). GL, Lf, or Lf-GL (100 × 10^–6 M of GL equivalent concentration) were added to the insert chamber, and cells were incubated for 24 h. CCK-8 assay and HMGB1 ELISA were conducted at the basal chamber.

[4] = test system: U87MG human glioma cell line; test: Cell viability test (CCK-8) in U87MG; type: cell-based; conditions: 50 μM GL equivalent, after 48 h treatment
Description: Cell viability was determined using a cell counting kit-8 (CCK-8). U87MG and HUVECs (seeding density: 0.75 × 10^4 cells per well) in 96-well culture plates were treated with GL, Lf, or Lf-GL (25 to 200 × 10^–6 M of GL equivalent concentration) and were incubated for different periods of time (24, 48, and 72 h). After washing with PBS, they were treated with a cell culture medium containing a CCK-8 assay kit (Abbkine) and were incubated at 37 °C and 5% CO2 for 2 h. Then, absorbance was measured at 450 nm in a micro-plate reader (VLBL00D0, Thermo Fisher Scientific). Results were quantified using Sigma Plot (Systat Software, USA). To determine the effect of extracellular HMGB1 in GBM and endothelial cell proliferation, U87MG and HUVECs were seeded in 96-well culture plates (seeding density: 0.75 × 10^4 cells per well) and GL, Lf, or Lf-GL (50 × 10^–6 M GL equivalent concentration) were added to cells with or without HMGB1 protein (U87MG: 0.1 μg mL^−1, and HUVEC: 1 μg mL^−1). Cells were incubated for different periods of time (24, 48, and 72 h).

HMGB1 [5] = test: HMGB1 ELISA of U87MG culture medium; type: cell-based, human; conditions: 50 μM GL equivalent, 48 h (control 131.8 ± 11.4)
Description: U87MG cells were seeded in 100 mm-cell culture dishes (2.2 × 10^6 cells per dish) and treated with GL, Lf, or Lf-GL (50 × 10^–6 M GL equivalent concentration) for 48 h. After incubating, cells were collected using a cell scrapper and were centrifuged for 3 min at 150 × g. Supernatant was collected as cell culture medium, and pellets were washed with cold PBS twice and transferred into a microcentrifuge tube. Tubes were centrifuged, and then pellets were resuspended in 500 μL 1X hypotonic buffer and incubated on ice. Then, 25 μL of NP40 was added and the mixture was agitated using a vortex mixer at the highest setting. Homogenates were centrifuged for 10 min at 842 × g at 4℃. Supernatant was collected as the cytoplasmic fraction, and pellets were resuspended in cell extraction buffer (50 μL) and were incubated for 30 min on ice with vortexing at 10 min intervals. Then, homogenates were centrifuged for 30 min at 14,000 × g at 4℃. Supernatant was collected as the nuclear fraction. The amount of HMGB1 in the samples was measured using a HMGB1 ELISA kit (Abbkine), and absorbance was measured at 450 nm in a micro-plate reader. A DNA assay (Quant-iT™ dsDNA Assay Kit, Invitrogen) was also conducted to express HMGB1 concentrations in equivalent amounts of DNA.

CD31 = test: Immunofluorescence staining of CD31 in GBM tissue; type: in vivo, Balb/c nude mice; conditions: GBM mice, daily i.v., 14 days (control MFI 14.7 ± 1.4)
From the text: as §1

HMGB1 [6] = test: HUVEC co-cultured with U87MG: HMGB1 ELISA; type: cell-based, human; conditions: HUVEC/U87MG co-culture, 100 μM GL equivalent, 24 h (control 217.8 ± 5.9)
Description: as §2

HMGB1 [7] = test: Immunofluorescence staining of HMGB1 in GBM tissue; type: in vivo, Balb/c nude mice; conditions: GBM mice, daily i.v. GL equivalent 50 mg kg^−1, 14 days (control 15.3 ± 1.7)
From the text: as §1

[8] = test system: orthotopic GBM (U87MG) mice model; test: Survival in orthotopic GBM mouse model; type: in vivo, Balb/c nude mice; conditions: i.v. GL equivalent 50 mg kg^−1 (Lf 5 mg kg^−1)
Description: To establish the orthotopic GBM mice model, GBM cells (U87MG, inoculation density: 1.0 × 10^6 cells per 10 μL) were stereotactically injected into the right striatum of Balb/c nude mice. Then, mice were randomly divided into four groups (n = 5): control, GL, Lf, and Lf-GL treated group. […] After four weeks, mice were sacrificed, and organs were harvested and fixed with 4% paraformaldehyde for further analysis.

U87MG cells = test: Cellular uptake of FITC-tagged Lf-GL (flow cytometry); type: cell-based, human; conditions: 2 h incubation, Lf pre-treatment 500 nM
Description: To verify cellular uptake of Lf-GL, U87MG cells (seeding density: 2.5 × 10^4 cells per well) in an 8 well Nunc™ Lab-Tek II chambered coverglass (Thermo Scientific) were treated with FITC-tagged Lf-GL (1 × 10^–6 M) for different time periods (0 to 18 h). After washing with PBS, cells were treated with lysotracker (75 × 10^–9 M) and incubated for 2 h. Then, cells were fixed with 4% paraformaldehyde followed by DAPI mounting. Confocal laser scanning microscopy (SP8 X, Leica, Germany) was used to observe intracellular fluorescence, and images were processed using LAS X software (Leica).
Fig. S11. Significant cellular uptake of Lf-GL in U87MG. (a) Flow cytometry to evaluate cellular uptake of FITC tagged-Lf-GL (1 µM) in U87MG for 2,6, and 18 h. The 2 h pre-treatment of Lf and Pitstop® were treated in the concentration of 500 nM and 75 nM, respectively. (b) Quantification of cellular uptake for 18 h. Data were expressed as mean ± S.E.M (n=2).

Row | Molecule | TUNEL MFI [1] | KD, equilibrium dissociation constant (KD = Kd Ka^−1) [2] [nM] | Ka, association rate constant ([2]; PBS pH 7.4, room temperature) | GBM/normal brain ratio [3] | Reduction of endothelial cell proliferation (HUVEC) [%] | Number of cells, % of the original count [4] [%] | HMGB1 released into the medium of U87MG cells (HMGB1 [5]) [ng/mL] | Decrease of MFI of CD31 (CD31) [fold] | HMGB1 level in medium (HMGB1 [6]) [ng/mL] | Mean fluorescence intensity (MFI) of HMGB1 (HMGB1 [7]) | Mice survived up to 28 days [8] [%] | Additional days of survival versus PBS control ([8]; 28 days) [days] | Decrease of cellular internalization in the presence of Lf (U87MG cells)
1 | lactoferrin (protein, UniProt P02788 20-710, looked up) Lactotransferrin: GRRRSVQWCAVSQPEATKCFQWQRNMRKVRGPPVSCIKRDSPIQCIQAIAENRADAVTLDGGFIYEAGLAPYKLRPVAAEVYGTERQPRTHYYAVAVVKKGGSFQLNELQGLKSCHTGLRRTAGWNVPIGTLRPFLNWTGPPEPIEAAVARFFSASCVPGADKGQFPNLCRLCAGTGENKCAFSSQEPYFSYSGAFKCLRDGAGDVAFIRESTVFEDLSDEAERDEYELLCPDNTRKPVDKFKDCHLARVPSHAVVARSVNGKEDAIWNLLRQAQEKFGKDKSPKFQLFGSPSGQKDLLFKDSAIGFSRVPPRIDSGLYLGSGYFTAIQNLRKSEEEVAARRARVVWCAVGEQELRKCNQWSGLSEGSVTCSSASTTEDCIALVLKGEADAMSLDGGYVYTAGKCGLVPVLAENYKSQQSSDPDPNCVDRPVEGYLAVAVVRRSDTSLTWNSVKGKKSCHTAVDRTAGWNIPMGLLFNQTGSCKFDEYFSQSCAPGSDPRSNLCALCIGDEQGENKCVPNSNERYYGYTGAFRCLAENAGDVAFVKDVTVLQNTDGNNNEAWAKDLKLADFALLCLDGKRKPVTEARSCHLAMAPNHAVVSRMDKVERLKQVLLHQQAKFGRNGSDCPDKFCLFQSETKNLLFNDNTECLARLHGKTTYEKYLGPQYVAGITNLKKCSTSPLLEACEFLRK | 9.4 ± 1.6 | 165 ± 3 | (8.1±0.1)·10^4 M^-1s^-1 | 29.7 ± 3.3 | 8.2 ± 2.9 | 69.6 ± 5.7 | 114 ± 3.4 | ~2 | 177.3 ± 3.6 | 7.9 ± 1.4 | 25 | 5 | 
2 | Lf-GL-FITC: FITC-tagged Lf-GL for cellular uptake studies (conjugate, UniProt P02788 20-710, looked up, FITC label; GL conjugate, FITC-tagged Lf-GL for cellular uptake studies) Lactotransferrin: GRRRSVQWCAVSQPEATKCFQWQRNMRKVRGPPVSCIKRDSPIQCIQAIAENRADAVTLDGGFIYEAGLAPYKLRPVAAEVYGTERQPRTHYYAVAVVKKGGSFQLNELQGLKSCHTGLRRTAGWNVPIGTLRPFLNWTGPPEPIEAAVARFFSASCVPGADKGQFPNLCRLCAGTGENKCAFSSQEPYFSYSGAFKCLRDGAGDVAFIRESTVFEDLSDEAERDEYELLCPDNTRKPVDKFKDCHLARVPSHAVVARSVNGKEDAIWNLLRQAQEKFGKDKSPKFQLFGSPSGQKDLLFKDSAIGFSRVPPRIDSGLYLGSGYFTAIQNLRKSEEEVAARRARVVWCAVGEQELRKCNQWSGLSEGSVTCSSASTTEDCIALVLKGEADAMSLDGGYVYTAGKCGLVPVLAENYKSQQSSDPDPNCVDRPVEGYLAVAVVRRSDTSLTWNSVKGKKSCHTAVDRTAGWNIPMGLLFNQTGSCKFDEYFSQSCAPGSDPRSNLCALCIGDEQGENKCVPNSNERYYGYTGAFRCLAENAGDVAFVKDVTVLQNTDGNNNEAWAKDLKLADFALLCLDGKRKPVTEARSCHLAMAPNHAVVSRMDKVERLKQVLLHQQAKFGRNGSDCPDKFCLFQSETKNLLFNDNTECLARLHGKTTYEKYLGPQYVAGITNLKKCSTSPLLEACEFLRK |  |  |  |  |  |  |  |  |  |  |  |  | about 17%
